Sequences and labels used below:
B1: OR4K15 (parent)
chain: GUUAACGGUCAUAGGCCAUGGAAACUAGGAGCACCAUUUCGCUGCCAGUGAAGAAAUGAACAAAGAAAAUCUGGGCCAGGCAGGCAUCAAAAGAAAUAGUCUUGCGCUCAACCAGAAAGUCUGUAAUCAUUUUAAGGGUA

The data set covers variants of B1. The data set is described as follows: self-cleavage, relative activity (ratio to wild type); higher = more cleavage; in vitro, sequencing; the parent is a self-cleaving ribozyme.
As to U87C A126U, the self-cleavage is 1.18. Consider A30G U57C, for which the self-cleavage turned out to be 1.29. In the case of A27G A82U, the self-cleavage amounted to 0.27. As to C85U A96G, the self-cleavage was 1.24.

On to A13G C105A, for which the self-cleavage worked out at 0.15. Turning to G119C U132C, the self-cleavage amounted to 1.13. On to U49G A54G, for which the self-cleavage is 1.61.

In the case of A27G U49C, the self-cleavage was found to be 2.01. The figure for A13G A51G is 0.85; for A69G G106A it is 0.02; for U72C A89G it is 0.24. The figure for A86G U103A is 0.93. To A86G U103C belongs 0.45; to A129C U130C, 0.63; to U97C A110G, 0.11.

Turning to U9C G29U, the self-cleavage was 2.61. The figure for U9A A55G is 0.81; for A33U A47G it is 1.68; for G119A A126G it is 1.98. Consider A82G A135G, for which the self-cleavage was determined as 0.58.

Turning to A110G U124C, the self-cleavage is 0.14. On to A30U U43C, for which the self-cleavage amounted to 1.88. In the case of A52G A55U, the self-cleavage worked out at 1.51. For the variant A52G A55C, the self-cleavage was found to be 1.29. Take A60G G79U: the self-cleavage came out at 0.08. To A22U U108C belongs 0.03; to A5C U108A, 0.07; to U49C A56C, 1.25. For A5C A18G, the self-cleavage was 1.02.

In the case of A90U, the self-cleavage was 1.96.

For A59G U139C, the self-cleavage was 1.4. The figure for A51G A118G is 1.29; for A24G G29U it is 1.2; for U37A it is 1.27.

Take A51G A89G: the self-cleavage amounted to 0.95. In the case of A86G U102G, the self-cleavage came out at 0.39. Turning to A18G A96U, the self-cleavage was determined as 1.84. Regarding A98G U127A, the self-cleavage is 0.78. With A23G A59G, the self-cleavage was found to be 1.11. As to U103C A116U, the self-cleavage came to 0.23. For C32G A54U, the self-cleavage is 1.14. As to C6U A117U, the self-cleavage came to 1.1. With A13U U122C, the self-cleavage was 0.56.

With C6U C77U, the self-cleavage worked out at 0.34. Regarding A22G A52U, the self-cleavage was 1.02. To A51U A110G belongs 0.23; to A114U G123A, 0.11; to A60U U133C, 2.17. The figure for A60G A129U is 1.14. For U120C A126U, the self-cleavage worked out at 0.57. A67U A118U: the self-cleavage amounted to 0.53. To A54U A98G belongs 0.2; to G53U A69G, 0.57. For A56G U103A, the self-cleavage was found to be 0.04.

Take A5G G7A: the self-cleavage stood at 0.91. The figure for A68G A95G is 1.98. Consider U49G A90G, for which the self-cleavage is 0.75. As to U87C A96G, the self-cleavage turned out to be 1.81. In the case of A11G G41U, the self-cleavage was 1.91.

In the case of C6U U102A, the self-cleavage worked out at 1.22. As for U19C A64U, the self-cleavage amounted to 1.45. As for G31U A111U, the self-cleavage is 0.15.

For U26C U122C, the self-cleavage is 0.7. Regarding C10A G20A, the self-cleavage was determined as 0.86. As for U19G A24G, the self-cleavage is 1.16.

Turning to A59U U120C, the self-cleavage came to 1.78. Turning to U12A A91U, the self-cleavage came to 1.64.

As for G53A A117G, the self-cleavage came out at 2.26. The figure for U37C U122A is 1.4; for A5G A11U it is 0.86; for U57A A116U it is 0.15.

C6U U100C: the self-cleavage was found to be 1.18. To U57C A135G belongs 1.34. With U139C A140C, the self-cleavage came out at 1.42. For the variant G7A A114U, the self-cleavage worked out at 0.06. To A59G A126G belongs 0.81; to C32U C121U, 2.22; to A5G A78G, 0.43. To A5G A135G belongs 2.3; to G75A A82G, 0.12; to A55G A114G, 0.32.

For the variant G74A A94U, the self-cleavage was determined as 0.19. The figure for A52U G79A is 0.37. Turning to A94U U130C, the self-cleavage turned out to be 1.01. As for A52U U122A, the self-cleavage came to 0.96. For the variant G84A A96U, the self-cleavage is 2.46. Consider C35U A94G, for which the self-cleavage was 0.64. With A82U U131A, the self-cleavage was 0.07.

On to A56U A114U, for which the self-cleavage was 0.04.

As for U39A A52G, the self-cleavage is 1.21. Consider C46A A52G, for which the self-cleavage turned out to be 1.25. The figure for G1U A54G is 1.44; for C32U C40U it is 2.05. As to A95G A125U, the self-cleavage is 0.96.

For A47G C112U, the self-cleavage is 0.01. With U2G A59G, the self-cleavage was 0.81. For the variant A117U U133C, the self-cleavage amounted to 1.23. Consider A54G A64U, for which the self-cleavage came to 1.67. In the case of A64G C109U, the self-cleavage stood at 0.36. As for C16G A68U, the self-cleavage came to 0.89.

On to A63G A94G, for which the self-cleavage was 1.98. For the variant U100A U139A, the self-cleavage turned out to be 1.29. On to A91G A94U, for which the self-cleavage worked out at 1.02. On to U19C G75C, for which the self-cleavage worked out at 0.17. In the case of A24G U49C, the self-cleavage is 1.37.

On to G28A U97C, for which the self-cleavage turned out to be 0.59. The figure for C61U G138A is 1.4. For C10A A68G, the self-cleavage came to 0.85. Regarding U9A C88U, the self-cleavage turned out to be 0.82. As to A110G U139C, the self-cleavage came to 0.17. For U9G U26C, the self-cleavage worked out at 0.34. Take U12C A89G: the self-cleavage was 1.35.

With U49A A69U, the self-cleavage is 1.92. To U26A A98G belongs 0.3; to A13G A47G, 0.13; to U12C A60G, 1.34.

On to G29C A96G, for which the self-cleavage amounted to 1.67.

Consider A33C G73A, for which the self-cleavage turned out to be 0.33. The figure for A54G C85A is 0.82; for U39A U57C it is 0.73; for A116G it is 0.47. For the variant A66G A91G, the self-cleavage worked out at 1.04. Take G7C U72A: the self-cleavage was found to be 0.38. On to U12C C45U, for which the self-cleavage was 1.85. For the variant A68U U132C, the self-cleavage stood at 1.76. Consider A30G A82G, for which the self-cleavage came out at 0.6. The figure for A82G A89U is 0.51; for A82G A89G it is 0.45; for A56G U108C it is 0.01.

On to A91G G104A, for which the self-cleavage came to 0.02.

As for A66G U97C, the self-cleavage stood at 1.98. The figure for A33U A56G is 1.57. In the case of G115A U132G, the self-cleavage stood at 0.01. Consider A52C U131C, for which the self-cleavage came out at 1.53.

As to A59G G75A, the self-cleavage came to 0.22. For G58A A60G, the self-cleavage was found to be 1.51. As to U39C U120A, the self-cleavage amounted to 2.52. To C35U A134G belongs 1.23. Regarding A117U A118C, the self-cleavage was found to be 0.51.

As for A92U U127A, the self-cleavage came to 1.77. Consider A11G A96C, for which the self-cleavage is 0.82. The figure for U43A U127C is 1.07. Regarding U43C A125U, the self-cleavage was found to be 1.56.

On to C6U A134G, for which the self-cleavage worked out at 1.38.

For A18U U127A, the self-cleavage amounted to 2.41. With A64G A98G, the self-cleavage was found to be 0.59.

For A24C U87C, the self-cleavage was 1.44. Regarding G84C A114G, the self-cleavage was 0.05. To C61U A110G belongs 0.11; to U122C U132A, 0.43.

On to A36G A60G, for which the self-cleavage came to 1.28. With A96G U124A, the self-cleavage is 0.94.

On to U108C A110G, for which the self-cleavage turned out to be 0.01.

Take U97C U122G: the self-cleavage was found to be 2.57. A62U G93A: the self-cleavage amounted to 2.2. Take U72C A117G: the self-cleavage was determined as 0.22.

Take A30G A62C: the self-cleavage was 1.38. A33G A82G: the self-cleavage was found to be 0.35. The figure for A110G G137A is 0.18; for A24C A64G it is 1.74; for A36C U127C it is 1.51. As for A51U, the self-cleavage is 1.5. With A11G A68C, the self-cleavage was found to be 0.39. U3C U131C: the self-cleavage is 0.51.

In the case of A22G U37G, the self-cleavage was 0.8. The figure for U19C A82U is 0.21; for A54G A78U it is 0.26.

The record behind these values is the RNAGym collection of RNA variant scans (doi:10.7554/elife.90254).
